From paper PMC9482650, “Quantitative fragmentomics allow affinity mapping of interactomes” (Nature Communications, 2022)

T1: SHANK1, Q9Y566
T1 sequence (Q9Y566 658-767, limits assumed, looked up): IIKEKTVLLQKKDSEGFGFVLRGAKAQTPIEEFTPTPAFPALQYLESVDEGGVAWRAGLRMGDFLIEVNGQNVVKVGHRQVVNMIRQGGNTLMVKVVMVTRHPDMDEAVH

T2: MPP6, Q9NZW5
T2 sequence (Q9NZW5 125-219, limits assumed, looked up): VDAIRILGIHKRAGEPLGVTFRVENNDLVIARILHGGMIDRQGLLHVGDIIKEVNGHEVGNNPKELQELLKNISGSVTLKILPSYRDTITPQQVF

T3: RADIL, Q96JH8
T3 sequence (Q96JH8 971-1071, limits assumed, looked up): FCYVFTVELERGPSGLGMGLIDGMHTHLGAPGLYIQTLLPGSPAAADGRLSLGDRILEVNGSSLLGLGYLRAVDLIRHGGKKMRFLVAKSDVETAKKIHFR

T4: SIPA1L2, Q9P2F8
T4 sequence (Q9P2F8 945-1036, limits assumed, looked up): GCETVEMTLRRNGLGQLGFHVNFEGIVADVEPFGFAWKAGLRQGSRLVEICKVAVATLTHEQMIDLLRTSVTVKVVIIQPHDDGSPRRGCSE

T5: DLG3_1, Q92796
T5 sequence (Q92796 125-227, limits assumed, looked up): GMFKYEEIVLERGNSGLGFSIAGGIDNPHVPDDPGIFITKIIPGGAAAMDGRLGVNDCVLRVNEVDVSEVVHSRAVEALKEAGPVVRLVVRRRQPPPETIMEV

T6: GRIP1_5, Q9Y3R0
T6 sequence (Q9Y3R0 568-668, limits assumed, looked up): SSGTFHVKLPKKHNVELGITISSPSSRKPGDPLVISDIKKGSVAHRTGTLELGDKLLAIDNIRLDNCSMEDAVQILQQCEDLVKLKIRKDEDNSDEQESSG

T7: DLG3_2, Q92796
T7 sequence (Q92796 221-321, limits assumed, looked up): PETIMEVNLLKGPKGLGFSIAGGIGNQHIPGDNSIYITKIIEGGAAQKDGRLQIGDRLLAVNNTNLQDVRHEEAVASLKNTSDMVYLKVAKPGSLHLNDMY

T8: LIN7A, O14910
T8 sequence (O14910 103-200, limits assumed, looked up): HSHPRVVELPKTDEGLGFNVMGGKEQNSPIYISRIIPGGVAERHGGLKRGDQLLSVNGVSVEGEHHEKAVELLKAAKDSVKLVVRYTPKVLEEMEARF

T9: ARHGEF11, O15085
T9 sequence (O15085 42-136, limits assumed, looked up): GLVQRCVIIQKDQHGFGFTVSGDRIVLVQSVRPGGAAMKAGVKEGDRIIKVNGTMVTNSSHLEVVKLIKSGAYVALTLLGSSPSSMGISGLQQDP


target: DLG4_3, P78352; assay: holdup assay; design: key: below the threshold = too weak to quantify, mostly under pKd 3.1 to 4; conditions: plain residues with an end cap or a label only (N-terminal biotin on a linker: ado-ado)
Sequence (P78352 306-403): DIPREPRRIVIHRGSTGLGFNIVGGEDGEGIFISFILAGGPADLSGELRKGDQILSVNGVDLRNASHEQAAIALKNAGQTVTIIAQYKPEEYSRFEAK

| Binder | pKd |
| --- | --- |
| VKPQVSESKL [ACOT8, O14734] | below the threshold |
| PRAEAEDSFL [PDGFRB, P09619] | below the threshold |

target: FRMPD3, Q5JV73; assay: holdup assay; design: key: below the threshold = too weak to quantify, mostly under pKd 3.1 to 4; conditions: plain residues with an end cap or a label only (N-terminal biotin on a linker: ado-ado)
Sequence (Q5JV73 12-100): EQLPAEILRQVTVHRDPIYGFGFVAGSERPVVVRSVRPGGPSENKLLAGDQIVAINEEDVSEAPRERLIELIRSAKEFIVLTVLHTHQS

| Binder | pKd |
| --- | --- |
| VKPQVSESKL [ACOT8, O14734] | below the threshold |
| PRAEAEDSFL [PDGFRB, P09619] | 3.56 |

target: GORASP2, Q9H8Y8; assay: holdup assay; design: key: below the threshold = too weak to quantify, mostly under pKd 3.1 to 4; conditions: plain residues with an end cap or a label only (N-terminal biotin on a linker: ado-ado)

| Binder | pKd |
| --- | --- |
| VKPQVSESKL [ACOT8, O14734] | below the threshold |
| PRAEAEDSFL [PDGFRB, P09619] | below the threshold |

target: MAGI1_2, Q96QZ7; assay: holdup assay; design: key: below the threshold = too weak to quantify, mostly under pKd 3.1 to 4; conditions: plain residues with an end cap or a label only (N-terminal biotin on a linker: ado-ado)
Sequence (Q96QZ7 456-580): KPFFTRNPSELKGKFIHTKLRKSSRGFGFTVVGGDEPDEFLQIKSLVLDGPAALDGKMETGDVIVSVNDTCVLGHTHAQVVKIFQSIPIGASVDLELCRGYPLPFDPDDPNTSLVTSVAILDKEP

| Binder | pKd |
| --- | --- |
| VKPQVSESKL [ACOT8, O14734] | below the threshold |
| PRAEAEDSFL [PDGFRB, P09619] | below the threshold |

target: GRASP, Q7Z6J2; assay: holdup assay; design: key: below the threshold = too weak to quantify, mostly under pKd 3.1 to 4; conditions: plain residues with an end cap or a label only (N-terminal biotin on a linker: ado-ado)
Sequence (Q7Z6J2 96-193): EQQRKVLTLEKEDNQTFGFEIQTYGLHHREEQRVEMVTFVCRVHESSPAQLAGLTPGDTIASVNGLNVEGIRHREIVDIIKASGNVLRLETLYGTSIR

| Binder | pKd |
| --- | --- |
| VKPQVSESKL [ACOT8, O14734] | below the threshold |
| PRAEAEDSFL [PDGFRB, P09619] | 3.58 |

target: T1, SHANK1, Q9Y566; assay: holdup assay; design: key: below the threshold = too weak to quantify, mostly under pKd 3.1 to 4; conditions: plain residues with an end cap or a label only (N-terminal biotin on a linker: ado-ado)

| Binder | pKd |
| --- | --- |
| VKPQVSESKL [ACOT8, O14734] | 4.01 |
| PRAEAEDSFL [PDGFRB, P09619] | 3.51 |

target: MAGI2_2, Q86UL8; assay: holdup assay; design: key: below the threshold = too weak to quantify, mostly under pKd 3.1 to 4; conditions: plain residues with an end cap or a label only (N-terminal biotin on a linker: ado-ado)
Sequence (Q86UL8 410-522): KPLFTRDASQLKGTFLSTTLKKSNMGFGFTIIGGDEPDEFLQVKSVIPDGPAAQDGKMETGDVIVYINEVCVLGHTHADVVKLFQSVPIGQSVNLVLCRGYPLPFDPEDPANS

| Binder | pKd |
| --- | --- |
| VKPQVSESKL [ACOT8, O14734] | 3.64 |
| PRAEAEDSFL [PDGFRB, P09619] | 3.55 |

target: T2, MPP6, Q9NZW5; assay: holdup assay; design: key: below the threshold = too weak to quantify, mostly under pKd 3.1 to 4; conditions: plain residues with an end cap or a label only (N-terminal biotin on a linker: ado-ado)

| Binder | pKd |
| --- | --- |
| VKPQVSESKL [ACOT8, O14734] | below the threshold |
| PRAEAEDSFL [PDGFRB, P09619] | 3.93 |

target: T3, RADIL, Q96JH8; assay: holdup assay; design: key: below the threshold = too weak to quantify, mostly under pKd 3.1 to 4; conditions: plain residues with an end cap or a label only (N-terminal biotin on a linker: ado-ado)

| Binder | pKd |
| --- | --- |
| VKPQVSESKL [ACOT8, O14734] | below the threshold |
| PRAEAEDSFL [PDGFRB, P09619] | below the threshold |

target: SCRIB_2, Q14160; assay: holdup assay; design: key: below the threshold = too weak to quantify, mostly under pKd 3.1 to 4; conditions: plain residues with an end cap or a label only (N-terminal biotin on a linker: ado-ado)
Sequence (Q14160 857-960): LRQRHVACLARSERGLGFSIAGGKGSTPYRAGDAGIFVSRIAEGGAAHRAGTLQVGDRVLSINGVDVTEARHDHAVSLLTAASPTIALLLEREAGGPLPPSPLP

| Binder | pKd |
| --- | --- |
| VKPQVSESKL [ACOT8, O14734] | 3.52 |
| PRAEAEDSFL [PDGFRB, P09619] | below the threshold |

target: IL16_1, Q14005; assay: holdup assay; design: key: below the threshold = too weak to quantify, mostly under pKd 3.1 to 4; conditions: plain residues with an end cap or a label only (N-terminal biotin on a linker: ado-ado)
Sequence (Q14005 210-306): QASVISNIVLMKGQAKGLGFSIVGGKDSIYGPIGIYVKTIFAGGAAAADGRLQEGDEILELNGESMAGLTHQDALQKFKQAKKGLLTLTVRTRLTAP

| Binder | pKd |
| --- | --- |
| VKPQVSESKL [ACOT8, O14734] | below the threshold |
| PRAEAEDSFL [PDGFRB, P09619] | below the threshold |

target: GOPC, Q9HD26; assay: holdup assay; design: key: below the threshold = too weak to quantify, mostly under pKd 3.1 to 4; conditions: plain residues with an end cap or a label only (N-terminal biotin on a linker: ado-ado)

| Binder | pKd |
| --- | --- |
| VKPQVSESKL [ACOT8, O14734] | 3.51 |
| PRAEAEDSFL [PDGFRB, P09619] | below the threshold |

target: SCRIB_3, Q14160; assay: holdup assay; design: key: below the threshold = too weak to quantify, mostly under pKd 3.1 to 4; conditions: plain residues with an end cap or a label only (N-terminal biotin on a linker: ado-ado)
Sequence (Q14160 999-1103): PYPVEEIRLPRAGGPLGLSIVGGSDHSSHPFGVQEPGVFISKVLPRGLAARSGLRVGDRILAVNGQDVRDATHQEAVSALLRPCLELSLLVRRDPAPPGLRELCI

| Binder | pKd |
| --- | --- |
| VKPQVSESKL [ACOT8, O14734] | 4.24 |
| PRAEAEDSFL [PDGFRB, P09619] | 4.06 |

target: T4, SIPA1L2, Q9P2F8; assay: holdup assay; design: key: below the threshold = too weak to quantify, mostly under pKd 3.1 to 4; conditions: plain residues with an end cap or a label only (N-terminal biotin on a linker: ado-ado)

| Binder | pKd |
| --- | --- |
| VKPQVSESKL [ACOT8, O14734] | below the threshold |
| PRAEAEDSFL [PDGFRB, P09619] | below the threshold |

target: AHNAK1, Q09666; assay: holdup assay; design: key: below the threshold = too weak to quantify, mostly under pKd 3.1 to 4; conditions: plain residues with an end cap or a label only (N-terminal biotin on a linker: ado-ado)
Sequence (Q09666 4-100): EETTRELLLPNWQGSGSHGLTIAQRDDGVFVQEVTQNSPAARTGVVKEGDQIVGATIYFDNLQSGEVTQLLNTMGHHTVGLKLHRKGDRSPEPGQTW

| Binder | pKd |
| --- | --- |
| VKPQVSESKL [ACOT8, O14734] | below the threshold |
| PRAEAEDSFL [PDGFRB, P09619] | below the threshold |

target: MAGI3_2, Q5TCQ9; assay: holdup assay; design: key: below the threshold = too weak to quantify, mostly under pKd 3.1 to 4; conditions: plain residues with an end cap or a label only (N-terminal biotin on a linker: ado-ado)
Sequence (Q5TCQ9 398-503): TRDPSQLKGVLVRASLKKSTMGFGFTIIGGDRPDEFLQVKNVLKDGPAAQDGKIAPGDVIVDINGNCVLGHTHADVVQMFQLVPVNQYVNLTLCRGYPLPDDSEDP

| Binder | pKd |
| --- | --- |
| VKPQVSESKL [ACOT8, O14734] | 3.59 |
| PRAEAEDSFL [PDGFRB, P09619] | below the threshold |

target: TJP2_1, Q9UDY2; assay: holdup assay; design: key: below the threshold = too weak to quantify, mostly under pKd 3.1 to 4; conditions: plain residues with an end cap or a label only (N-terminal biotin on a linker: ado-ado)
Sequence (Q9UDY2 24-128): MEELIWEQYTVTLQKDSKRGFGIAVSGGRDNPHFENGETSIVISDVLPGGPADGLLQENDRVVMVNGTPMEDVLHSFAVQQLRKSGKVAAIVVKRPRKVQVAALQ

| Binder | pKd |
| --- | --- |
| VKPQVSESKL [ACOT8, O14734] | below the threshold |
| PRAEAEDSFL [PDGFRB, P09619] | below the threshold |

target: T5, DLG3_1, Q92796; assay: holdup assay; design: key: below the threshold = too weak to quantify, mostly under pKd 3.1 to 4; conditions: plain residues with an end cap or a label only (N-terminal biotin on a linker: ado-ado)

| Binder | pKd |
| --- | --- |
| VKPQVSESKL [ACOT8, O14734] | below the threshold |
| PRAEAEDSFL [PDGFRB, P09619] | below the threshold |

target: LDB3, O75112; assay: holdup assay; design: key: below the threshold = too weak to quantify, mostly under pKd 3.1 to 4; conditions: plain residues with an end cap or a label only (N-terminal biotin on a linker: ado-ado)
Sequence (O75112 1-94): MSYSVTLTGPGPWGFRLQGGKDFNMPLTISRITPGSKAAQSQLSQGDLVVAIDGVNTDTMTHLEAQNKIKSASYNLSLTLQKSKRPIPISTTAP

| Binder | pKd |
| --- | --- |
| VKPQVSESKL [ACOT8, O14734] | 3.6 |
| PRAEAEDSFL [PDGFRB, P09619] | 3.67 |

target: DLG1_3, Q12959; assay: holdup assay; design: key: below the threshold = too weak to quantify, mostly under pKd 3.1 to 4; conditions: plain residues with an end cap or a label only (N-terminal biotin on a linker: ado-ado)

| Binder | pKd |
| --- | --- |
| VKPQVSESKL [ACOT8, O14734] | below the threshold |
| PRAEAEDSFL [PDGFRB, P09619] | 3.54 |

target: PDLIM1, O00151; assay: holdup assay; design: key: below the threshold = too weak to quantify, mostly under pKd 3.1 to 4; conditions: plain residues with an end cap or a label only (N-terminal biotin on a linker: ado-ado)
Sequence (O00151 1-87): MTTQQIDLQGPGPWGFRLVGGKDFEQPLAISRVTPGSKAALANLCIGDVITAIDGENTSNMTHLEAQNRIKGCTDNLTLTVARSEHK

| Binder | pKd |
| --- | --- |
| VKPQVSESKL [ACOT8, O14734] | below the threshold |
| PRAEAEDSFL [PDGFRB, P09619] | 3.54 |

target: DLG1_1, Q12959; assay: holdup assay; design: key: below the threshold = too weak to quantify, mostly under pKd 3.1 to 4; conditions: plain residues with an end cap or a label only (N-terminal biotin on a linker: ado-ado)

| Binder | pKd |
| --- | --- |
| VKPQVSESKL [ACOT8, O14734] | below the threshold |
| PRAEAEDSFL [PDGFRB, P09619] | below the threshold |

target: T6, GRIP1_5, Q9Y3R0; assay: holdup assay; design: key: below the threshold = too weak to quantify, mostly under pKd 3.1 to 4; conditions: plain residues with an end cap or a label only (N-terminal biotin on a linker: ado-ado)

| Binder | pKd |
| --- | --- |
| VKPQVSESKL [ACOT8, O14734] | below the threshold |
| PRAEAEDSFL [PDGFRB, P09619] | 3.53 |

target: T7, DLG3_2, Q92796; assay: holdup assay; design: key: below the threshold = too weak to quantify, mostly under pKd 3.1 to 4; conditions: plain residues with an end cap or a label only (N-terminal biotin on a linker: ado-ado)

| Binder | pKd |
| --- | --- |
| VKPQVSESKL [ACOT8, O14734] | 4.17 |
| PRAEAEDSFL [PDGFRB, P09619] | below the threshold |

target: T8, LIN7A, O14910; assay: holdup assay; design: key: below the threshold = too weak to quantify, mostly under pKd 3.1 to 4; conditions: plain residues with an end cap or a label only (N-terminal biotin on a linker: ado-ado)

| Binder | pKd |
| --- | --- |
| VKPQVSESKL [ACOT8, O14734] | below the threshold |
| PRAEAEDSFL [PDGFRB, P09619] | 3.56 |

target: TJP1_2, Q07157; assay: holdup assay; design: key: below the threshold = too weak to quantify, mostly under pKd 3.1 to 4; conditions: plain residues with an end cap or a label only (N-terminal biotin on a linker: ado-ado)
Sequence (Q07157 181-274): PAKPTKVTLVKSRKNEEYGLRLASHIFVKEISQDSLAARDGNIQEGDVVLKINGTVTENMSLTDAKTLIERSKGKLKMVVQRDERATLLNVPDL

| Binder | pKd |
| --- | --- |
| VKPQVSESKL [ACOT8, O14734] | below the threshold |
| PRAEAEDSFL [PDGFRB, P09619] | 3.58 |

target: T9, ARHGEF11, O15085; assay: holdup assay; design: key: below the threshold = too weak to quantify, mostly under pKd 3.1 to 4; conditions: plain residues with an end cap or a label only (N-terminal biotin on a linker: ado-ado)

| Binder | pKd |
| --- | --- |
| VKPQVSESKL [ACOT8, O14734] | below the threshold |
| PRAEAEDSFL [PDGFRB, P09619] | 3.78 |

target: DLG4_2, P78352; assay: holdup assay; design: key: below the threshold = too weak to quantify, mostly under pKd 3.1 to 4; conditions: plain residues with an end cap or a label only (N-terminal biotin on a linker: ado-ado)
Sequence (P78352 155-259): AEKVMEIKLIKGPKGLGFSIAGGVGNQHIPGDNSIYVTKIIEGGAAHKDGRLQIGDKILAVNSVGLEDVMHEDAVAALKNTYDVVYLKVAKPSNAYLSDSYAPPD

| Binder | pKd |
| --- | --- |
| VKPQVSESKL [ACOT8, O14734] | below the threshold |
| PRAEAEDSFL [PDGFRB, P09619] | 3.48 |
